In patent US20260167959A1, “APTAZYME-BASED REGULATABLE GENE EXPRESSION SYSTEMS” (REJUVENATE BIO INC, priority 2022, published 2026):

System: Renilla luciferase RNA
Assay: Barcoded aptazyme variant library screen: un-cleaved Renilla luciferase RNA by barcode read counts, HEK293-T cells
Assay type: cell-based
Conditions: un-cleaved Renilla luciferase RNA, HEK293-T cells cultured with 1 mM theophylline (ON) over without theophylline (OFF); barcode read counts, triplicate
Text: Based on the findings from Example 1, an aptazyme variant library was generated from the T3H48 ribozyme with one of seven variant theophylline aptamers inserted sequentially after each nucleotide of the DNA sequence encoding the T3H48 ribozyme sequence. […] The seven variant theophylline aptamers vary in their communication channels, which are the ribonucleotides of the aptamer that attach to the ribozyme sequence (see, Table 2).
The library was barcoded with unique sequences of nine nucleotides flanked by forward and reverse primer amplification sequences.
The aptazyme library was then PCR amplified and cloned into the psiCHECK™-2 dual luciferase vector in the 3′ UTR of the Renilla luciferase gene. […] The next day, the cells were isolated followed by DNA and RNA extraction using standard methods. The purified RNA was then converted to cDNA and the barcoded portion of the aptazyme library was PCR amplified. Similarly, the DNA was PCR amplified and all the samples were sequenced. All experimental conditions (with theophylline and without theophylline) were performed in triplicate. The read count for each barcode was determined with a custom build code and the data was normalized to identify the un-cleaved fractions of the Renilla luciferase RNA from cells that were cultured in the presence or absence of theophylline for each aptazyme, which was used to obtain the fold-change between ON- and OFF-states (FIG. 2).

Row | Molecule | Fold change in RNA expression between the ON state and the OFF state [fold]
1 | RA282 (nucleic acid, expressed or natural sequence) DNA: GCGCGTCCTGGATTCGCGAGAATACCAGCATCGTCTTGATGCCCTTGGAAGTCTCGCGGAAACGCGTACATCCAGCTGACGAGTCCCAAATAGGACGAAACGCGC | 1.0
2 | RA280 (nucleic acid, expressed or natural sequence) DNA: GCGCGTCCTGGATTCGCGGAAACGCGTACATCCAGCTGACGAGTCCCAAATAGGAGGAATACCAGCATCGTCTTGATGCCCTTGGAAGTCCCGAAACGCGC | 1.0
3 | RA273 (nucleic acid, expressed or natural sequence) DNA: GCGCGTCCTGGATTCGCGGGAATACCAGCATCGTCTTGATGCCCTTGGAAGTCCGAAACGCGTACATCCAGCTGACGAGTCCCAAATAGGACGAAACGCGC | 1.0
4 | RA283 (nucleic acid, expressed or natural sequence) DNA: GCGCGTCCTGGAAGAATACCAGCATCGTCTTGATGCCCTTGGAAGTCTTTCGCGGAAACGCGTACATCCAGCTGACGAGTCCCAAATAGGACGAAACGCGC | 1.0
5 | RA281 (nucleic acid, expressed or natural sequence) DNA: GCGCGTCCTGGATTCGCGGAAACGCGTACATCCAGCTGACGAGTCCCAAATACGAGAATACCAGCATCGTCTTGATGCCCTTGGAAGTCTCGGGACGAAACGCGC | 1.0
6 | RA272 (nucleic acid, expressed or natural sequence) DNA: GCGCGTCCTGGATTCGCGGAAACGCGTACATCCAGCTGACGAGTCCCAAATAGGACGAAACGCGCAGAATACCAGCATCGTCTTGATGCCCTTGGAAGTCT | 1.0
7 | RA270 (nucleic acid, expressed or natural sequence) DNA: GCGCGTCCTGGATTCGCGGAAACGCGTACATCCAGCTGACGAGTCCCAAATAGGACGAAGAATACCAGCATCGTCTTGATGCCCTTGGAAGTCTAACGCGC | 1.0
8 | RA279 (nucleic acid, expressed or natural sequence) DNA: GCGCGTCCTGGATTCGCGGAAACGCGTACATCCAGCTGACGAGTCCCAAATAGGACGACGAGAATACCAGCATCGTCTTGATGCCCTTGGAAGTCTCGAACGCGC | 1.0
9 | RA002 (nucleic acid, expressed or natural sequence) DNA: GCGCGTCCTGGATTCGCGGAAACGCGTACATCCAGCTGACGAGTCCCAAATAGGACGAAACGAGAATACCAGCATCGTCTTGATGCCCTTGGAAGTCTCGCGCGC | >6
10 | RA284 (nucleic acid, expressed or natural sequence) DNA: GCGCGTCCTGGATTCGCGGAAACGGAATACCAGCATCGTCTTGATGCCCTTGGAAGTCCGCGTACATCCAGCTGACGAGTCCCAAATAGGACGAAACGCGC | 1.0
11 | RA278 (nucleic acid, expressed or natural sequence) DNA: GCGCGTCCTGGATTCGAGTGATACCAGCATCGTCTTGATGCCCTTGGCAGCACTCGGAAACGCGTACATCCAGCTGACGAGTCCCAAATAGGACGAAACGCGC | 1.0
12 | RA027 (nucleic acid, expressed or natural sequence) DNA: GCGCGTCCTGGATTCGCGGAAACGCGTACAGTGATACCAGCATCGTCTTGATGCCCTTGGCAGCACTATCCAGCTGACGAGTCCCAAATAGGACGAAACGCGC | 2.4
13 | RA274 (nucleic acid, expressed or natural sequence) DNA: GCGCGTCCTGGATTCGCGGAAACGCGTACATCCAGCTGACGAGTCCCAAAGAGAATACCAGCATCGTCTTGATGCCCTTGGAAGTCTCTAGGACGAAACGCGC | 1.0
14 | RA285 (nucleic acid, expressed or natural sequence) DNA: GCGCGTCCTGGATTCGCGGAAACGCAGTGATACCAGCATCGTCTTGATGCCCTTGGCAGCACTGTACATCCAGCTGACGAGTCCCAAATAGGACGAAACGCGC | 1.0
15 | RA277 (nucleic acid, expressed or natural sequence) DNA: GCGCGTCCTGGATTCGCGGAAACGCGTACATCCGAGAATACCAGCATCGTCTTGATGCCCTTGGAAGTCTCAGCTGACGAGTCCCAAATAGGACGAAACGCGC | 1.0
16 | RA286 (nucleic acid, expressed or natural sequence) DNA: GCGCGTCCTGGATTCGCGGAAAAGAATACCAGCATCGTCTTGATGCCCTTGGAAGTCTCGCGTACATCCAGCTGACGAGTCCCAAATAGGACGAAACGCGC | 1.0
17 | RA288 (nucleic acid, expressed or natural sequence) DNA: GCGCGTCCTGGATTCGCGGAAACGCGTACATCCAGCTGACGAGTCCCAAATAAGTGATACCAGCATCGTCTTGATGCCCTTGGCAGCACTGGACGAAACGCGC | 1.0
18 | RA276 (nucleic acid, expressed or natural sequence) DNA: GCGCGTCCTGGATTCGCGGAAACGCGTACATCCAGCTGACGAAGAATACCAGCATCGTCTTGATGCCCTTGGAAGTCTGTCCCAAATAGGACGAAACGCGC | 1.0
19 | RA275 (nucleic acid, expressed or natural sequence) DNA: GCGCGTCCTGGATTGAGAATACCAGCATCGTCTTGATGCCCTTGGAAGTCTCCGCGGAAACGCGTACATCCAGCTGACGAGTCCCAAATAGGACGAAACGCGC | 1.0
20 | RA287 (nucleic acid, expressed or natural sequence) DNA: GCGCGTCCTGGATTCGCGGAAACGCGTACATCCAGCTGACGAAGTGATACCAGCATCGTCTTGATGCCCTTGGCAGCACTGTCCCAAATAGGACGAAACGCGC | 1.0
21 | RA271 (nucleic acid, expressed or natural sequence) DNA: GCGCGTCCTGGATTCGCGGAAACGCGTACATCCAGCTGACGAGTCCCAACCGGAATACCAGCATCGTCTTGATGCCCTTGGAAGTCCGGATAGGACGAAACGCGC | 1.0
